Experimental data from patent US20220031841A1 (ABSCI, published 2022).

T1: Inorganic pyrophosphatase (PPA1) (human, UniProt Q15181 2-289)
T1 construct: The array carries full-length recombinant human proteins expressed in S. cerevisiae; also called Human PPA1
T1 sequence: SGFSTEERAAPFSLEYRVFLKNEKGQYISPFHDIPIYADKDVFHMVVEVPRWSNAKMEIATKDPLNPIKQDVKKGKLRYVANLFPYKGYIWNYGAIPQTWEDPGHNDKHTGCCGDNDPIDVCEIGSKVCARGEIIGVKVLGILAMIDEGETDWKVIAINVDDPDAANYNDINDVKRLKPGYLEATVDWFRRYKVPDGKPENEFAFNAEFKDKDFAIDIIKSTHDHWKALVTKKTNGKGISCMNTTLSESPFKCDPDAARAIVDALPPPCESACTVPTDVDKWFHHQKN

T2: Src homology 2 (SH2) domain containing inositol polyphosphate 5-phosphatase 1 (SHIP1) (human, UniProt Q92835 1-1189)
T2 construct: The array carries full-length recombinant human proteins expressed in S. cerevisiae, purified and printed on glass slides; also called INPP5D; INPP5D/SHIP1
T2 sequence: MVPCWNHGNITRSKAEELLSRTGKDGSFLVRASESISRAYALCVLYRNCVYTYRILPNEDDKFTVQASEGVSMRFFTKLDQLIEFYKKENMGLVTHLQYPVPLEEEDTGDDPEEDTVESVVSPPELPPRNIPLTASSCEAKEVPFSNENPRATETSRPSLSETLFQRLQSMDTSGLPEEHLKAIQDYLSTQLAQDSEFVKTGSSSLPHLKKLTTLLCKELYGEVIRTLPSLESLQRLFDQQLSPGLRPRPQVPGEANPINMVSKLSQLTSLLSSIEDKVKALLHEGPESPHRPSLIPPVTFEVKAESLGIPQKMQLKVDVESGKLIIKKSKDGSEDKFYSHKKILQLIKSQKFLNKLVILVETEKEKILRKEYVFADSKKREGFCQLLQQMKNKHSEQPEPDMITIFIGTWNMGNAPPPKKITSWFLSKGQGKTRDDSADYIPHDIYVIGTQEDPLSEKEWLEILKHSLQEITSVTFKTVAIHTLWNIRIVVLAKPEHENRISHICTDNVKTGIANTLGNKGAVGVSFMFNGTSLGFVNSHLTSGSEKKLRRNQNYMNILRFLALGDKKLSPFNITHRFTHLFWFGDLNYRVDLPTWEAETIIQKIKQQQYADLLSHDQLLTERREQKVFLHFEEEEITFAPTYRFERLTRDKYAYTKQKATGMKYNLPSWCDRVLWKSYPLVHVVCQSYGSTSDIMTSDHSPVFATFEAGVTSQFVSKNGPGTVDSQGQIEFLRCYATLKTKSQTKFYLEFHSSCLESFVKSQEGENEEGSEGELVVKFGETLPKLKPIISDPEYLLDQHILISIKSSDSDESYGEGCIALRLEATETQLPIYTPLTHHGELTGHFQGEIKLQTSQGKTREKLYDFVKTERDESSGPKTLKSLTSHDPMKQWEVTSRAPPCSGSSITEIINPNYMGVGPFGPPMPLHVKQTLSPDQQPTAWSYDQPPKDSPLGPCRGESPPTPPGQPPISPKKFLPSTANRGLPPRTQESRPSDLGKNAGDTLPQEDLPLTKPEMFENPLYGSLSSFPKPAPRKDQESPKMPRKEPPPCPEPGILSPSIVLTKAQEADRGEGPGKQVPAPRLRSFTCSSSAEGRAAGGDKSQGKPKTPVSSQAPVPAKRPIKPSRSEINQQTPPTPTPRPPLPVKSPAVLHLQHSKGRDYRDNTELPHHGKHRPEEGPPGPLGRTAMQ


What was measured:
Assay in all cases: HuProt protein array, F635 z-score
[1] = biological target: T3, Chromobox protein homolog 1 (CBX1) (human, UniProt P83916 1-185)
T3 construct: The array carries full-length recombinant human proteins expressed in S. cerevisiae; also called Human Chromobox protein homolog 1
T3 sequence (P83916 whole entry): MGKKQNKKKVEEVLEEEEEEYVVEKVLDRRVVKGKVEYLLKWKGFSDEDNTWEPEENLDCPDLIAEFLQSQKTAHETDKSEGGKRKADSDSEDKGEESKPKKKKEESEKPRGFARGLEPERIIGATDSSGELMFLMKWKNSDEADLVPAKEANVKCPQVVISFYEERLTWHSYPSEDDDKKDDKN
Source text: (§1) Large scale protein arrays are versatile and sensitive platforms for antibody specificity evaluation. They can be used for the evaluation of protein binding or affinity reagents that are widely employed in research and clinical applications. The microarray used in our target identification experiment provides the largest number of unique, full-length, individually purified human proteins on a single microscope slide. This allows thousands of interactions to be profiled in a high-throughput manner. The hill-length recombinant proteins are expressed in the yeast S. cerevisiae, purified, and printed on glass slides in duplicate along with a set of control proteins (GST, BSA, histones, IgG, etc.). Such microarray is not restricted to a particular type of surface coating, although the default is glass coated with ultra-thin nitrocellulose film for the non-covalent, yet irreversible, capture of active proteins to the surface. Fourteen Protein arrays were used for the antibody cross-reactivity assay of the samples. The antibodies were probed at […] on the arrays and incubated at room temperature for 1 hour. After probing, the arrays were washed according to the protocol and probed with Alexa-647-anti-human IgG […] specific secondary antibodies under conditions optimized for signal detection. The antibody-antigen binding score was calculated for each protein represented on the array and expressed as z-scores.
(§2) Antibody samples are probed on native HuProt arrays at 1 μg/ml and incubated at room temperature for 1 hour. After probing, the arrays are washed according to the standard protocols and probed with Alexa-647-anti-human IgG Fc gamma specific secondary antibodies under conditions optimized for signal detection.
(§3) Z score is the average Z score of the duplicate spots of a given protein (each protein is printed in duplicate on a HuProt™ array). The Z score of each spot on a given array is calculated according to the equation: […]

[2] = biological target: T1, Inorganic pyrophosphatase (PPA1)
Source text: as §1, §2, §3

[3] = biological target: T2, Src homology 2 (SH2) domain containing …
Source text: as §1, §2, §3

[4] = biological target: T4, Chromobox protein homolog 5 (CBX5) (human, UniProt P45973 1-191)
T4 construct: The array carries full-length recombinant human proteins expressed in S. cerevisiae; also called Human Chromobox protein homolog 5
T4 sequence (P45973 whole entry): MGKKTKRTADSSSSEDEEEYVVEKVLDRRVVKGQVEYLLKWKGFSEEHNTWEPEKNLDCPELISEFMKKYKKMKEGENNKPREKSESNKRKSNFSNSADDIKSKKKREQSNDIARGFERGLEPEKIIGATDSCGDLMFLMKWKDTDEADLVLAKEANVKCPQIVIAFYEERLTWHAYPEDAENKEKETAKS
Source text: as §1, §2, §3

[5] = biological target: T5, Melanoma-associated antigen 3 (MAGE-A3) (human, UniProt P43357 1-314)
T5 construct: The array carries full-length recombinant human proteins expressed in S. cerevisiae; also called Human MAGE-A3
T5 sequence (P43357 whole entry): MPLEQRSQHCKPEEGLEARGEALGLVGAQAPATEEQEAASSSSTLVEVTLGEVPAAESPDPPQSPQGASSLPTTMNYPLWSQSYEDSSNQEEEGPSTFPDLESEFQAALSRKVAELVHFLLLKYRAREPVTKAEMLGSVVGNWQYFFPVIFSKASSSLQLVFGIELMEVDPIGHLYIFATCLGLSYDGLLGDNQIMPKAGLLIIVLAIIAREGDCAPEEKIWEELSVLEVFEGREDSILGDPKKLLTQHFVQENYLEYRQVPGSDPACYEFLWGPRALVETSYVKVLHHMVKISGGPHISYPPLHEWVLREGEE
Source text: as §1, §2, §3

Binder | binding result [1] | binding result [2] | binding result [3] | binding result [4] | binding result [5]
TMEL1014 (antibody, V domains shown, It was detected with an anti-human IgG Fc gamma secondary antibody) VH: SVQLVESGGGVVQPGRSLRLSCAASGFTFSSYTMHWVRQAPGKGLEWVALISYDGSNKYYADSVKGRFTISRDNPKNTLYLQMNSLRVEDTAVYYCARDWTLGYWGQGTLVTVSS VL: VSSELTQDPAVSVALGQTVRITCQGDSLRNYYANWYQQKPGQAPILVIYDKNNRPSGIPDRFSGSSSGNTASLTITGAQAEDEADYYCNSRDSSGYHLVFGGGTKLTVLG | no binding (tested: 1 µg/ml) | no binding (tested: 1 µg/ml) | no binding (tested: 1 µg/ml) | no binding (tested: 1 µg/ml) | 
TMEL1013 (antibody, V domains shown) VH: PVQLVQSGAEVKKPGSSVKVSCKASGGTFSSYTINWVRQAPGQGLEWMGRIIPILGVANYAQKFQGRVTITADKSTSTAYMDLSSLRSEDTAVYYCAREWERAFDYWGQGTLVTVSS VL: not shown | no binding (tested: 1 µg/ml) | no binding (tested: 1 µg/ml) | no binding (tested: 1 µg/ml) | no binding (tested: 1 µg/ml) | 
TMEL1010 (antibody, V domains shown, It was detected with an anti-human IgG Fc gamma secondary antibody) VH: QVQLVQSGAEVKKPGASVKVSCKASGYTFSSYGISWVRQAPGQGLEWMGWISAYNGNTNYAKKLQGRVTMTTDTSTSTAYLELRSLRSDDTAVYYCARGDGPFDYWGQGTLVTVSS VL: EIVMTQSPATLSVSPGERATLSCWASQSVSSSLAWYQQKPGQAPRLLMYGASNRATGIPARFSGSGSGTEFTLTISSLQSEDFAVYYCQQYNKWPPDTFGQGTKLEIKR | no binding (tested: 1 µg/ml) |  | no binding (tested: 1 µg/ml) | no binding (tested: 1 µg/ml) | no binding (tested: 1 µg/ml)
TMEL1012 (antibody, V domains shown) VH: PLQLQESGPGLVKPSETLSLTCTVSGDSITTTYYWGWIRQPPGKGLEWIASIYFTGSTFHNPSLKSRVTMSVDTSKNQFSLNLSSVTAADTAVYYCARRVGNWNYVWFDPWGQGTLVSVSS VL: AYVLTQPPSVSVAPGQTARMTCGGNNIGSKSVHWYRQRPGQAPVLVVYDDTDRPSGIPERFSGSNSGNTATLTISRVEAGDEADYYCQVWDTNSDHVVFGGGTKLTVLG | no binding (tested: 1 µg/ml) | no binding (tested: 1 µg/ml) | no binding (tested: 1 µg/ml) | no binding (tested: 1 µg/ml) | no binding (tested: 1 µg/ml)
TMEL1007 (antibody, V domains shown, It was detected with an anti-human IgG Fc gamma secondary antibody) VH: HVHLVQSGAEVKKPGSSVKVSCTASGGSFSSNPISWVRQAPGHGLQWMGGFVPLFGTANYAPSFHGRLTITADESTSTTYMELNSLRSEDSAVYYCARDFNWNFDFWGQGTLVTVSS VL: QSALTQPASVSGSPGQSITISCTGTSSDIGSYNLVSWYRQYPGKAPKLMIYEVNKRPSGVSNRFSGSKSGNTASLTISGLQAEDEADYYCCSYAGTTTFVIFGRGTKLTVLG | no binding (tested: 1 µg/ml) | no binding (tested: 1 µg/ml) | no binding (tested: 1 µg/ml) | no binding (tested: 1 µg/ml) | no binding (tested: 1 µg/ml)
TMEL1009 (antibody, V domains shown) VH: PVQLVQSGAEVKKPGSSVKVSCRASGGTFSNYGLNWVRQAPGQGLEWMGGIIPIFGSVNYAQKFQDRVTITADESTSTTYMDLNSLRSEDTAVYYCATERGHNMERAFDFWGQGTLVTVSS VL: not shown | no binding (tested: 1 µg/ml) | no binding (tested: 1 µg/ml) | no binding (tested: 1 µg/ml) | no binding (tested: 1 µg/ml) | 

The next lines start with the values.

binding result [1] | binding result [2] | binding result [3] | binding result [4] | binding result [5] | Binder
no binding (tested: 1 µg/ml) | no binding (tested: 1 µg/ml) | no binding (tested: 1 µg/ml) | no binding (tested: 1 µg/ml) | no binding (tested: 1 µg/ml) | TMEL1002 (antibody, V domains shown) VH: not shown VL: ASALTQPASVSGSPGQSITISCTGTSSDVGDYNYVSWYQQHPGKAPKLMIYDVSNRPSGVSNRFSGSKSGNTASLTISGLQAEDEADYYCSSYTSSSTLVFGGGTKLTVLG
no binding (tested: 1 µg/ml) | no binding (tested: 1 µg/ml) | no binding (tested: 1 µg/ml) | no binding (tested: 1 µg/ml) | no binding (tested: 1 µg/ml) | TMEL1011 (antibody, V domains shown, It was detected with an anti-human IgG Fc gamma secondary antibody) VH: PVQLVQSGAEVKKPGSSVKVSCKASGGTFSSYSFNWVRQAPGQGLEWMARIIPILGLANYAQKFQGRVTLTADESTSTAYMELSSLRSEDTAIFYCAGMVLGQLGFDPWGQGTLVTVSS VL: QFMLTQPHSVSESPGRTVTISCTRSSGSIARNYVHWYQHRPGSSPTTVIYEDDQRPSGVPDRFSGSIDSSSNSASLTISGLKPEDEADYFCQSYDSNIWVFGGGTKLTVLG
no binding (tested: 1 µg/ml) | no binding (tested: 1 µg/ml) | no binding (tested: 1 µg/ml) | no binding (tested: 1 µg/ml) |  | TMEL1008 (antibody, V domains shown, It was detected with an anti-human IgG Fc gamma secondary antibody) VH: QVQLVQSGAEVKKPGSSVKVSCKASGGTFNRDGIIWVRQAPGQGLEWMGRIIPILGIANYAQKFQGRVTIIADKSTSTAYMELSSLRSEDTAVYYCARESEVGRGMDVWGQGTTVTVSS VL: ASALTQPASVSGSPGQSITISCTGTSSDVGDYNYVSWYQQHPGKAPKLMIYDVSNRPSGVSHRFSGSKSGNTASLTISGLQAEDEADYYCSSYTISSTLGVFGPGTKVTVLG
